Measurements published in the supplement of paper PMC10567573.

B1: PDS5B (parent)
chain: IYKKYALQSAAGKDAAKQIAWIKD

Variants of: B1
Assay: protein stability index of a GFP-peptide fusion (GPS, HEK-293T) (PSI 1-6); higher = more stable
Settings: c terminus: a fixed tail appended
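Also: lentivirally expressed fusions sorted by FACS into six bins by GFP to DsRed ratio, PSI derived from sequencing read proportions per bin multiplied by bin number.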

Variant	protein stability index
IYKKYALQSAVGKDAAKQIAWIKD	2.29
IYKKYALQSAQGKDAAKQIAWIKD	2.69
IYKKYALQSAEGKDAAKQIAWIKD	2.43
IYKKYALQSAAGKDNAKQIAWIKD	2.5
IYKKYALQSAAGKDDAKQIAWIKD	2.35
IYKKYALQSAAGKDWAKQIAWIKD	1.43
IYKKYALQSAAGKDQAKQIAWIKD	2.29
IYKKYALQSAAGKDVAKQIAWIKD	1.71
IYKKYALQSAAGKDIAKQIAWIKD	1.69
IYKKYALQSAAGKDRAKQIAWIKD	2.09
IYKKYALQSAAGKDHAKQIAWIKD	2.22
IYKKYALQSAAGKDPAKQIAWIKD	2.56
IYKKYALQSAAGKDMAKQIAWIKD	1.83
IYKKYALQSAAGKDGAKQIAWIKD	2.9
IYKKYALQSAAGKDEAKQIAWIKD	2.7
IYKKYALQSAAGKDLAKQIAWIKD	2.64
IYKKYALQSAAGKDCAKQIAWIKD	1.89
IYKKYALQSAAGKDFAKQIAWIKD	1.75
IYKKYALQSAAGKDTAKQIAWIKD	2.35
IYKKYALQSAAGKDKAKQIAWIKD	2.76
IYKKYALQSAAGKDSAKQIAWIKD	2.73
IYKKYALQSAAGKDYAKQIAWIKD	1.45
IYKKYALQSAAAKDAAKQIAWIKD	1.86
IYKKYALQSAAKKDAAKQIAWIKD	1.75

Variant	protein stability index
IYKKYALQSAASKDAAKQIAWIKD	1.96
IYKKYALQSAANKDAAKQIAWIKD	2.19
IYKKYALQSAAEKDAAKQIAWIKD	2.34
IYKKYALQSAAFKDAAKQIAWIKD	1.99
IYKKYALQSAATKDAAKQIAWIKD	1.71
IYKKYALQSAAIKDAAKQIAWIKD	1.69
IYKKYALQSAAPKDAAKQIAWIKD	2.74
IYKKYALQSAARKDAAKQIAWIKD	1.88
IYKKYALQSAAQKDAAKQIAWIKD	1.58
IYKKYALQSAAVKDAAKQIAWIKD	2.08
IYKKYALQSAACKDAAKQIAWIKD	1.6
IYKKYALQSAALKDAAKQIAWIKD	1.84
IYKKYALQSAAHKDAAKQIAWIKD	1.67
IYKKYALQSAAWKDAAKQIAWIKD	2.63
IYKKYALQSAAYKDAAKQIAWIKD	1.64
IYKKYALQSAADKDAAKQIAWIKD	3.13
IYKKYALQSEAGKDAAKQIAWIKD	2.38
IYKKYALQSIAGKDAAKQIAWIKD	1.89
IYKKYALQSQAGKDAAKQIAWIKD	2.4
IYKKYALQSFAGKDAAKQIAWIKD	1.37
IYKKYALQSMAGKDAAKQIAWIKD	1.83
IYKKYALQSGAGKDAAKQIAWIKD	1.71
IYKKYALQSCAGKDAAKQIAWIKD	1.72
IYKKYALQSHAGKDAAKQIAWIKD	1.84

Variant	protein stability index
IYKKYALQSPAGKDAAKQIAWIKD	2.26
IYKKYALQSRAGKDAAKQIAWIKD	1.37
IYKKYALQSNAGKDAAKQIAWIKD	2.19
IYKKYALQSDAGKDAAKQIAWIKD	2.53
IYKKYALQSKAGKDAAKQIAWIKD	2
IYKKYALQSTAGKDAAKQIAWIKD	2.42
IYKKYALQSVAGKDAAKQIAWIKD	2.1
IYKKYALQSLAGKDAAKQIAWIKD	2.32
IYKKYALQSWAGKDAAKQIAWIKD	1.77
IYKKYALQSSAGKDAAKQIAWIKD	2.36
IYKKYALQSYAGKDAAKQIAWIKD	1.75
IYKKYALQTAAGKDAAKQIAWIKD	2.06
IYKKYALQCAAGKDAAKQIAWIKD	2
IYKKYALQEAAGKDAAKQIAWIKD	2.73
IYKKYALQGAAGKDAAKQIAWIKD	2.17
IYKKYALQKAAGKDAAKQIAWIKD	1.87
IYKKYALQVAAGKDAAKQIAWIKD	2.13
IYKKYALQPAAGKDAAKQIAWIKD	2.17
IYKKYALQNAAGKDAAKQIAWIKD	2.2
IYKKYALQAAAGKDAAKQIAWIKD	2.16
IYKKYALQHAAGKDAAKQIAWIKD	2.38
IYKKYALQLAAGKDAAKQIAWIKD	1.76
IYKKYALQYAAGKDAAKQIAWIKD	1.75
IYKKYALQFAAGKDAAKQIAWIKD	2

Variant	protein stability index
IYKKYALQDAAGKDAAKQIAWIKD	3.27
IYKKYALQWAAGKDAAKQIAWIKD	1.99
IYKKYALQQAAGKDAAKQIAWIKD	2.79
IYKKYALQRAAGKDAAKQIAWIKD	2.29
IYKKYALQMAAGKDAAKQIAWIKD	2.44
IYKKYALQIAAGKDAAKQIAWIKD	1.93
IYKKYALTSAAGKDAAKQIAWIKD	1.84
IYKKYALWSAAGKDAAKQIAWIKD	1.92
IYKKYALRSAAGKDAAKQIAWIKD	2.21
IYKKYALMSAAGKDAAKQIAWIKD	2.06
IYKKYALESAAGKDAAKQIAWIKD	2.67
IYKKYALYSAAGKDAAKQIAWIKD	1.69
IYKKYALVSAAGKDAAKQIAWIKD	2.17
IYKKYALHSAAGKDAAKQIAWIKD	1.83
IYKKYALPSAAGKDAAKQIAWIKD	2.72
IYKKYALLSAAGKDAAKQIAWIKD	1.85
IYKKYALISAAGKDAAKQIAWIKD	2.7
IYKKYALNSAAGKDAAKQIAWIKD	2.06
IYKKYALFSAAGKDAAKQIAWIKD	3.35
IYKKYALSSAAGKDAAKQIAWIKD	2.25
IYKKYALGSAAGKDAAKQIAWIKD	2.01
IYKKYALKSAAGKDAAKQIAWIKD	2.35
